Test results published in IntAct's records for PubMed 17392788.

B1: "Lethal(2) giant larvae protein homolog SRO7" (Saccharomyces cerevisiae), Q12038 (parent)
chain: MFGSKRLKNVKEAFKSLKGQNSETPIENSKASFKSKNSKTSTISKDAKSSSSLKIPISSNNKNKIFSLAETNKYGMSSKPIAAAFDFTQNLLAIATVTGEVHIYGQQQVEVVIKLEDRSAIKEMRFVKGIYLVVINAKDTVYVLSLYSQKVLTTVFVPGKITSIDTDASLDWMLIGLQNGSMIVYDIDRDQLSSFKLDNLQKSSFFPAARLSPIVSIQWNPRDIGTVLISYEYVTLTYSLVENEIKQSFIYELPPFAPGGDFSEKTNEKRTPKVIQSLYHPNSLHIITIHEDNSLVFWDANSGHMIMARTVFETEINVPQPDYIRDSSTNAAKISKVYWMCENNPEYTSLLISHKSISRGDNQSLTMIDLGYTPRYSITSYEGMKNYYANPKQMKIFPLPTNVPIVNILPIPRQSPYFAGCHNPGLILLILGNGEIETMLYPSGIFTDKASLFPQNLSWLRPLATTSMAASVPNKLWLGALSAAQNKDYLLKGGVRTKRQKLPAEYGTAFITGHSNGSVRIYDASHGDIQDNASFEVNLSRTLNKAKELAVDKISFAAETLELAVSIETGDVVLFKYEVNQFYSVENRPESGDLEMNFRRFSLNNTNGVLVDVRDRAPTGVRQGFMPSTAVHANKGKTSAINNSNIGFVGIAYAAGSLMLIDRRGPAIIYMENIREISGAQSACVTCIEFVIMEYGDDGYSSILMVCGTDMGEVITYKILPASGGKFDVQLMDITNVTSKGPIHKIDAFSKETKSSCLATIPKMQNLSKGLCIPGIVLITGFDDIRLITLGKSKSTHKGFKYPLAATGLSYISTVEKNNDRKNLTVIITLEINGHLRVFTIPDFKEQMSEHIPFPIAAKYITESSVLRNGDIAIRVSEFQASLFSTVKEQDTLAPVSDTLYINGIRIPYRPQVNSLQWARGTVYCTPAQLNELLGGVNRPASKYKESIIAEGSFSERSSDDNNANHPEHQYTKPTRKGRNSSYGVLRNVSRAVETRWDAVEDRFNDYATAMGETMNEAVEQTGKDVMKGALGF

Variants of: B1
Details: with sec9_yeast SEC9, P40357
Chain of sec9_yeast SEC9, P40357 (P40357 whole entry): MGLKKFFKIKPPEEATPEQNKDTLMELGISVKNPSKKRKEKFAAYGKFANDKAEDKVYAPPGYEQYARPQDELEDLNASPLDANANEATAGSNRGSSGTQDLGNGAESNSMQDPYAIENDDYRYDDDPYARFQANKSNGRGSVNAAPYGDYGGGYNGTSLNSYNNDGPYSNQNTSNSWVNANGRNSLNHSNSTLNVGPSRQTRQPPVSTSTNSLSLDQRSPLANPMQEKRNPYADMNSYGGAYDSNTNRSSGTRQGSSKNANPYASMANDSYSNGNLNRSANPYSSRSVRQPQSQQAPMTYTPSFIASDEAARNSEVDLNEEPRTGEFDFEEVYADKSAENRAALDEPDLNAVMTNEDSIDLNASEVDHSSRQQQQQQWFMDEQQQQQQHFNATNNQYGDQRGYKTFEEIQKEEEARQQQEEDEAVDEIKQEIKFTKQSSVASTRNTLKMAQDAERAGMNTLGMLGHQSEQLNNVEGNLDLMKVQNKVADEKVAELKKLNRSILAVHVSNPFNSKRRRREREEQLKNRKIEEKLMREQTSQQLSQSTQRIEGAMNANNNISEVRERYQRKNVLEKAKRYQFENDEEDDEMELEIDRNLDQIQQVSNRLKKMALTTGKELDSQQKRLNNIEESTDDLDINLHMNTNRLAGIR

Variant	effect of a mutation on the interaction
E562A	decreasing interaction strength
Y700A	disrupting interaction strength
P721A	disrupting interaction strength
M764A	decreasing interaction strength
R664A	decreasing interaction strength
